Data published in paper PMC12416549 (2024).

T1: TNFR1 (Homo sapiens, UniProt P19438)
T1 chain: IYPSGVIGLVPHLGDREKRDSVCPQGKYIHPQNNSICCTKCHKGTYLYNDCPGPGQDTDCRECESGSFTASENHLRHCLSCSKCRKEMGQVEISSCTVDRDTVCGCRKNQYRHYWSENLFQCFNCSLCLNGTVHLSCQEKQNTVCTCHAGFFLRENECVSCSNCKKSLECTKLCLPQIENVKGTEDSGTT


Molecular target: T1, TNFR1
Assay: yeast display SC50

Row | Binder | apparent Kd (screen)
1 | E25W (designed binder) MTLQELLREEALRRAEAEAFRYALWLLAEKFPEQKEYLLDLAEEIESQIRSLSGVDVEDVRKFLDKEWAWVKELLAEHPAELAEVEAARAARLAELRAEVEAKVAA | 1.16 nM
2 | P79H (designed binder) MTLQELLREEALRRAEAEAFRYALELLAEKFPEQKEYLLDLAEEIESQIRSLSGVDVEDVRKFLDKEWAWVKELLAEHHAELAEVEAARAARLAELRAEVEAKVAA | 0.49 nM
3 | A11M (designed binder) MTLQELLREEMLRRAEAEAFRYALELLAEKFPEQKEYLLDLAEEIESQIRSLSGVDVEDVRKFLDKEWAWVKELLAEHPAELAEVEAARAARLAELRAEVEAKVAA | 1.27 nM
4 | P32D (designed binder) MTLQELLREEALRRAEAEAFRYALELLAEKFDEQKEYLLDLAEEIESQIRSLSGVDVEDVRKFLDKEWAWVKELLAEHPAELAEVEAARAARLAELRAEVEAKVAA | 0.869 nM
5 | E16K (designed binder) MTLQELLREEALRRAKAEAFRYALELLAEKFPEQKEYLLDLAEEIESQIRSLSGVDVEDVRKFLDKEWAWVKELLAEHPAELAEVEAARAARLAELRAEVEAKVAA | 5.31 nM
6 | H78I (designed binder) MTLQELLREEALRRAEAEAFRYALELLAEKFPEQKEYLLDLAEEIESQIRSLSGVDVEDVRKFLDKEWAWVKELLAEIPAELAEVEAARAARLAELRAEVEAKVAA | 1.16 nM
7 | T2S (designed binder) MSLQELLREEALRRAEAEAFRYALELLAEKFPEQKEYLLDLAEEIESQIRSLSGVDVEDVRKFLDKEWAWVKELLAEHPAELAEVEAARAARLAELRAEVEAKVAA | 0.653 nM
8 | L27V (designed binder) MTLQELLREEALRRAEAEAFRYALELVAEKFPEQKEYLLDLAEEIESQIRSLSGVDVEDVRKFLDKEWAWVKELLAEHPAELAEVEAARAARLAELRAEVEAKVAA | 1.54 nM
9 | A42G (designed binder) MTLQELLREEALRRAEAEAFRYALELLAEKFPEQKEYLLDLGEEIESQIRSLSGVDVEDVRKFLDKEWAWVKELLAEHPAELAEVEAARAARLAELRAEVEAKVAA | 0.49 nM
10 | E77P (designed binder) MTLQELLREEALRRAEAEAFRYALELLAEKFPEQKEYLLDLAEEIESQIRSLSGVDVEDVRKFLDKEWAWVKELLAPHPAELAEVEAARAARLAELRAEVEAKVAA | 0.405 nM
11 | E81G (designed binder) MTLQELLREEALRRAEAEAFRYALELLAEKFPEQKEYLLDLAEEIESQIRSLSGVDVEDVRKFLDKEWAWVKELLAEHPAGLAEVEAARAARLAELRAEVEAKVAA | 0.539 nM
12 | D59N (designed binder) MTLQELLREEALRRAEAEAFRYALELLAEKFPEQKEYLLDLAEEIESQIRSLSGVDVENVRKFLDKEWAWVKELLAEHPAELAEVEAARAARLAELRAEVEAKVAA | 0.653 nM
13 | F20A (designed binder) MTLQELLREEALRRAEAEAARYALELLAEKFPEQKEYLLDLAEEIESQIRSLSGVDVEDVRKFLDKEWAWVKELLAEHPAELAEVEAARAARLAELRAEVEAKVAA | 2.05 nM
14 | S53W (designed binder) MTLQELLREEALRRAEAEAFRYALELLAEKFPEQKEYLLDLAEEIESQIRSLWGVDVEDVRKFLDKEWAWVKELLAEHPAELAEVEAARAARLAELRAEVEAKVAA | 13.8 nM
15 | E33I (designed binder) MTLQELLREEALRRAEAEAFRYALELLAEKFPIQKEYLLDLAEEIESQIRSLSGVDVEDVRKFLDKEWAWVKELLAEHPAELAEVEAARAARLAELRAEVEAKVAA | 0.718 nM
16 | E5L (designed binder) MTLQLLLREEALRRAEAEAFRYALELLAEKFPEQKEYLLDLAEEIESQIRSLSGVDVEDVRKFLDKEWAWVKELLAEHPAELAEVEAARAARLAELRAEVEAKVAA | 0.718 nM
17 | E77V (designed binder) MTLQELLREEALRRAEAEAFRYALELLAEKFPEQKEYLLDLAEEIESQIRSLSGVDVEDVRKFLDKEWAWVKELLAVHPAELAEVEAARAARLAELRAEVEAKVAA | 0.593 nM
18 | Y37V (designed binder) MTLQELLREEALRRAEAEAFRYALELLAEKFPEQKEVLLDLAEEIESQIRSLSGVDVEDVRKFLDKEWAWVKELLAEHPAELAEVEAARAARLAELRAEVEAKVAA | 24.4 nM
19 | A28T (designed binder) MTLQELLREEALRRAEAEAFRYALELLTEKFPEQKEYLLDLAEEIESQIRSLSGVDVEDVRKFLDKEWAWVKELLAEHPAELAEVEAARAARLAELRAEVEAKVAA | 1.27 nM
20 | E9T (designed binder) MTLQELLRTEALRRAEAEAFRYALELLAEKFPEQKEYLLDLAEEIESQIRSLSGVDVEDVRKFLDKEWAWVKELLAEHPAELAEVEAARAARLAELRAEVEAKVAA | 0.956 nM
21 | A11E (designed binder) MTLQELLREEELRRAEAEAFRYALELLAEKFPEQKEYLLDLAEEIESQIRSLSGVDVEDVRKFLDKEWAWVKELLAEHPAELAEVEAARAARLAELRAEVEAKVAA | 0.446 nM
22 | I45V (designed binder) MTLQELLREEALRRAEAEAFRYALELLAEKFPEQKEYLLDLAEEVESQIRSLSGVDVEDVRKFLDKEWAWVKELLAEHPAELAEVEAARAARLAELRAEVEAKVAA | 0.593 nM

Second part, the binder after the results:

Row | apparent Kd (screen) | Binder
23 | 0.956 nM | A106G (designed binder) MTLQELLREEALRRAEAEAFRYALELLAEKFPEQKEYLLDLAEEIESQIRSLSGVDVEDVRKFLDKEWAWVKELLAEHPAELAEVEAARAARLAELRAEVEAKVAG
24 | 0.718 nM | V100G (designed binder) MTLQELLREEALRRAEAEAFRYALELLAEKFPEQKEYLLDLAEEIESQIRSLSGVDVEDVRKFLDKEWAWVKELLAEHPAELAEVEAARAARLAELRAEGEAKVAA
25 | 0.539 nM | A94G (designed binder) MTLQELLREEALRRAEAEAFRYALELLAEKFPEQKEYLLDLAEEIESQIRSLSGVDVEDVRKFLDKEWAWVKELLAEHPAELAEVEAARAARLGELRAEVEAKVAA
26 | 0.539 nM | A106L (designed binder) MTLQELLREEALRRAEAEAFRYALELLAEKFPEQKEYLLDLAEEIESQIRSLSGVDVEDVRKFLDKEWAWVKELLAEHPAELAEVEAARAARLAELRAEVEAKVAL
27 | 1.05 nM | A106D (designed binder) MTLQELLREEALRRAEAEAFRYALELLAEKFPEQKEYLLDLAEEIESQIRSLSGVDVEDVRKFLDKEWAWVKELLAEHPAELAEVEAARAARLAELRAEVEAKVAD
28 | 2.05 nM | E86Y (designed binder) MTLQELLREEALRRAEAEAFRYALELLAEKFPEQKEYLLDLAEEIESQIRSLSGVDVEDVRKFLDKEWAWVKELLAEHPAELAEVYAARAARLAELRAEVEAKVAA
29 | 0.539 nM | E99G (designed binder) MTLQELLREEALRRAEAEAFRYALELLAEKFPEQKEYLLDLAEEIESQIRSLSGVDVEDVRKFLDKEWAWVKELLAEHPAELAEVEAARAARLAELRAGVEAKVAA
30 | 1.16 nM | E99P (designed binder) MTLQELLREEALRRAEAEAFRYALELLAEKFPEQKEYLLDLAEEIESQIRSLSGVDVEDVRKFLDKEWAWVKELLAEHPAELAEVEAARAARLAELRAPVEAKVAA
31 | 0.593 nM | V104Y (designed binder) MTLQELLREEALRRAEAEAFRYALELLAEKFPEQKEYLLDLAEEIESQIRSLSGVDVEDVRKFLDKEWAWVKELLAEHPAELAEVEAARAARLAELRAEVEAKYAA
32 | 0.653 nM | A98M (designed binder) MTLQELLREEALRRAEAEAFRYALELLAEKFPEQKEYLLDLAEEIESQIRSLSGVDVEDVRKFLDKEWAWVKELLAEHPAELAEVEAARAARLAELRMEVEAKVAA
33 | 0.869 nM | E84K (designed binder) MTLQELLREEALRRAEAEAFRYALELLAEKFPEQKEYLLDLAEEIESQIRSLSGVDVEDVRKFLDKEWAWVKELLAEHPAELAKVEAARAARLAELRAEVEAKVAA
34 | 0.49 nM | L82V (designed binder) MTLQELLREEALRRAEAEAFRYALELLAEKFPEQKEYLLDLAEEIESQIRSLSGVDVEDVRKFLDKEWAWVKELLAEHPAEVAEVEAARAARLAELRAEVEAKVAA
35 | 0.869 nM | V104S (designed binder) MTLQELLREEALRRAEAEAFRYALELLAEKFPEQKEYLLDLAEEIESQIRSLSGVDVEDVRKFLDKEWAWVKELLAEHPAELAEVEAARAARLAELRAEVEAKSAA
